Assay results published in PMC10781821, “Novel recombinant aminoacylase from Paraburkholderia monticola capable of N-acyl-amino acid synthesis” (Applied Microbiology and Biotechnology, 2024).

Legend:
[1] = substrate: CCCCCCCCCCCC(=O)N[C@@H](Cc1ccccc1)C(=O)O; assay: ninhydrin assay of released amino acid, initial rates; type: biochemical, Paraburkholderia monticola; conditions: hydrolysis, 100 mM Na-borate pH 9.0, Zn2+ (50 µM), 30 °C in Results (Methods print 50 °C)
[2] = substrate: CCCCCCCCCCCC(=O)N[C@@H](C)C(=O)O; assay: as above; type: biochemical, Paraburkholderia monticola; conditions: hydrolysis, 100 mM Na-borate pH 9.0, Zn2+ (50 µM), 30 °C in Results (Methods print 50 °C)

B1: PmAcy (N-terminally StrepII-tagged aminoacylase) (Paraburkholderia monticola) (protein)
chain: MLSLVLPGLSQAQSTLPPAPPAKPVLFTNFRLFDGKSMTLRDGLYMVVEGNSISQLGQGQPASVEGKTLVDCGGKVMMPGLIDMHWHALLAALPIQVILQSDIAFVHLAASAEAERTLLRGFTTIRDAGGPSFALKQAIDSGMISGPRIYPSGAMITTTGGHGDFRPLTDLPRTSSQVTQGERDGGFAIADTEDEMRVRVREQFIQGATQIKLVGSGGVSTPRSPLDMLTFTEKQLRAAVETAADWGTYVLSHAYTPEAVQRSVAAGAQCIEHGHLMDDKTAALMAKNGTWLSTQPFISEEDVGPLAPQSREKFLEVVAGTDNAFRLARKHGIKVAFGTDLLFSQAIATRQGTMLTHMKRWYSPAEALGMATGTNGQLLALTGKRNPYPRRLGVLEEGAYADLLLVDGNPLENLDLIANPEQNLRIVMKDGKFYKNTLKA
notes: full-length codon-optimised gene, N-terminal StrepII-tag with serine-glycine linker kept; E. coli BL21 (DE3) pGro7 (GroEL/S)
B1 showed a Km [1] of 0.21 mM and a Km [2] of 1.95 mM.
